Earlier results in patent publication US20060110594A1, “Polymer-coated substrates for binding biomolecules and methods of making and using thereof” (priority 2004, published 2006).

Details: isoelectric point, listed property

B1: Myoglobin: protein immobilized on EMA, 17.6 kDa (protein, UniProt P68082 2-154, looked up)
Myoglobin: GLSDGEWQQVLNVWGKVEADIAGHGQEVLIRLFTGHPETLEKFDKFKHLKTEAEMKASEDLKKHGTVVLTALGGILKKKGHHEAELKPLAQSHATKHKIPIKYLEFISDAIIHVLHSKHPGDFGADAQGAMTKALELFRNDIAAKYKELGFQG
modifications: immobilized on EMA
notes: protein immobilized on EMA, 17.6 kDa
For B1, the pI is listed as 7.2.
